Data set [1] concerns the target T1, ComED58E D58E (Streptococcus pneumoniae D39) (UniProt A0A0H2ZLR3).
T1 sequence: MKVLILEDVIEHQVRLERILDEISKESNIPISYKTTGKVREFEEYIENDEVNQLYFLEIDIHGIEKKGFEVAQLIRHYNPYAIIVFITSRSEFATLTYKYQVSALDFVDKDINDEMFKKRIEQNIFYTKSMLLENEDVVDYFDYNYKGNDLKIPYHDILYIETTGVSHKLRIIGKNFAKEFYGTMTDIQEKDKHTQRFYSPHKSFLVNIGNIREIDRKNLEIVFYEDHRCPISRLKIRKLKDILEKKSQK
Kind of data set: EMSA. To be noted: EMSA: 1x LightShift binding buffer, 1 ug poly(dI-dC), 2.5% glycerol, 0.05% NP-40, 5 mM Mn2+, 5 mM Zn2+, 2-4 ug protein, 1 ng probe, 20 ul, 37 C, 30 min; pH not …. In general terms: A gel shift assay detects complexes by their altered migration in electrophoresis.

In data set [2] the target is CSP1 (UniProt P60243). Nature of the data set: EMSA. The following applies: EMSA: 1x LightShift binding buffer, 1 ug poly(dI-dC), 2.5% glycerol, 0.05% NP-40, 5 mM Mn2+, 5 mM Zn2+, 2-4 ug protein, 1 ng probe, 20 ul, 37 C, 30 min; pH not ….

This is an account of results in article PMC5339220.

As for “TACACATCTGCTTCTAAAATATTGTTAGAAAACGATTTGACTGTCCTGATCAATTTGTCATGTTCTTATTTCATTTTACTATATTTTTGGTTCGCGGGAAGTCTACTAAGATACTTAAAGATGCAGATAGTGAAAAAAGGTGTAGACATTACCGTAAAAAAGTGATATAATCGTAAGATGTTCAATGTATAGGTGTTAATCATGAGTAGACGTTTTAA (double strand) [C2 probe (cps promoter)]”, the figures for the binding result in data set [1] and in data set [2] were “binds” and “no binding”, respectively.
